Results as given in doi:10.1101/2021.01.07.425795 (bioRxiv, 2021).
Residue numbers refer to the chain shown, from its start. Like-named read-outs stand apart in the source and are kept apart here.

T1: His6-ECSIT (human, UniProt Q9BQ95 49-431)
T1 sequence (looked up): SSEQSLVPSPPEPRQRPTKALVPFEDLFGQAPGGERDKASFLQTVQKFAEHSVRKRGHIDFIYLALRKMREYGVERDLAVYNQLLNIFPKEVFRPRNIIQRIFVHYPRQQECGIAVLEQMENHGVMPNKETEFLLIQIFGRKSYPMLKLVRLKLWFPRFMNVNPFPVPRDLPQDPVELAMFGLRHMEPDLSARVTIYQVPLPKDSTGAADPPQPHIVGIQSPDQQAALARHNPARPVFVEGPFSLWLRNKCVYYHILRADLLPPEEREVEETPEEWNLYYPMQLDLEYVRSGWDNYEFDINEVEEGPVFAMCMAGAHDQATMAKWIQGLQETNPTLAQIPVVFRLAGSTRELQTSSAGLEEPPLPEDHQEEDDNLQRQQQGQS

B1: His6-SMT3-NDUFAF1 (natural protein, human, UniProt Q9Y375 25-327, looked up)
chain: YPFLGIRFAEYSSSLQKPVASPGKASSQRKTEGDLQGDHQKEVALDITSSEEKPDVSFDKAIRDEAIYHFRLLKDEIVDHWRGPEGHPLHEVLLEQAKVVWQFRGKEDLDKWTVTSDKTIGGRSEVFLKMGKNNQSALLYGTLSSEAPQDGESTRSGYCAMISRIPRGAFERKMSYDWSQFNTLYLRVRGDGRPWMVNIKEDTDFFQRTNQMYSYFMFTRGGPYWQEVKIPFSKFFFSNRGRIRDVQHELPLDKISSIGFTLADKVDGPFFLEIDFIGVFTDPAHTEEFAYENSPELNPRLFK
B2: ACAD9 (wild type, without a tag) (enzyme, human, UniProt Q9H845 38-621, looked up)
chain: AFAKELFLGKIKKKEVFPFPEVSQDELNEINQFLGPVEKFFTEEVDSRKIDQEGKIPDETLEKLKSLGLFGLQVPEEYGGLGFSNTMYSRLGEIISMDGSITVTLAAHQAIGLKGIILAGTEEQKAKYLPKLASGEHIAAFCLTEPASGSDAASIRSRATLSEDKKHYILNGSKVWITNGGLANIFTVFAKTEVVDSDGSVKDKITAFIVERDFGGVTNGKPEDKLGIRGSNTCEVHFENTKIPVENILGEVGDGFKVAMNILNSGRFSMGSVVAGLLKRLIEMTAEYACTRKQFNKRLSEFGLIQEKFALMAQKAYVMESMTYLTAGMLDQPGFPDCSIEAAMVKVFSSEAAWQCVSEALQILGGLGYTRDYPYERILRDTRILLIFEGTNEILRMYIALTGLQHAGRILTTRIHELKQAKVSTVMDTVGRRLRDSLGRTVDLGLTGNHGVVHPSLADSANKFEENTYCFGRTVETLLLRFGKTIMEEQLVLKRVANILINLYGMTAVLSRASRSIRIGLRNHDHEVLLANTFCVEAYLQNLFSLSQLDKYAPENLDEQIKKVSQQILEKRAYICAHPLDRTC
B3: ACAD9 Arg518His (enzyme, human, UniProt Q9H845 38-621, looked up)
chain: B2 chain with R481H
B4: ACAD9-His6 (enzyme, human, UniProt Q9H845 38-621, looked up)
chain: B2 chain
B5: ACAD9 Arg469Trp (enzyme, human, UniProt Q9H845 38-621, looked up)
chain: B2 chain with R432W
B6: ACAD9 Arg532Trp (enzyme, human, UniProt Q9H845 38-621, looked up)
chain: B2 chain with R495W
B7: ACAD9 Glu426Gln (enzyme, human, UniProt Q9H845 38-621, looked up)
chain: B2 chain with E389Q
B8: very long chain acyl-CoA dehydrogenase (VLCAD) (enzyme, human, UniProt P49748 41-655, looked up)
chain: AGGAAQLALDKSDSHPSDALTRKKPAKAESKSFAVGMFKGQLTTDQVFPYPSVLNEEQTQFLKELVEPVSRFFEEVNDPAKNDALEMVEETTWQGLKELGAFGLQVPSELGGVGLCNTQYARLVEIVGMHDLGVGITLGAHQSIGFKGILLFGTKAQKEKYLPKLASGETVAAFCLTEPSSGSDAASIRTSAVPSPCGKYYTLNGSKLWISNGGLADIFTVFAKTPVTDPATGAVKEKITAFVVERGFGGITHGPPEKKMGIKASNTAEVFFDGVRVPSENVLGEVGSGFKVAMHILNNGRFGMAAALAGTMRGIIAKAVDHATNRTQFGEKIHNFGLIQEKLARMVMLQYVTESMAYMVSANMDQGATDFQIEAAISKIFGSEAAWKVTDECIQIMGGMGFMKEPGVERVLRDLRIFRIFEGTNDILRLFVALQGCMDKGKELSGLGSALKNPFGNAGLLLGEAGKQLRRRAGLGSGLSLSGLVHPELSRSGELAVRALEQFATVVEAKLIKHKKGIVNEQFLLQRLADGAIDLYAMVVVLSRASRSLSEGHPTAQHEKMLCDTWCIEAAARIREGMAALQSDPWQQELYRNFKSISKALVERGGVVTSNPLGF
B9: Loop12-ACAD9 (enzyme, human)
chain: AFAKELFLGKIKKKEVFPFPEVSQDELNEINQFLGPVEKFFTEEVDSRKIDQEGKIPDETLEKLKSLGLFGLQVPEEYGGLGFSNTMYSRLGEIISMDGSITVTLAAHQAIGLKGIILAGTEEQKAKYLPKLASGEHIAAFCLTEPASGSDAASIRSRATLSEDKKHYILNGSKVWITNGGLANIFTVFAKTEVVDSDGSVKDKITAFIVERDFGGVTNGKPEDKLGIRGSNTCEVHFENTKIPVENILGEVGDGFKVAMNILNSGRFSMGSVVAGLLKRLIEMTAEYACTRKQFNKRLSEFGLIQEKFALMAQKAYVMESMTYLTAGMLDQPGFPDCSIEAAMVKVFSSEAAWQCVSEALQILGGLGYTRDYPYERILRDTRILLIFEGTNEILRMYIALTGLQHAGRILTTGGSGGSGGSGGSDLGLTGNHGVVHPSLADSANKFEENTYCFGRTVETLLLRFGKTIMEEQLVLKRVANILINLYGMTAVLSRASRSIRIGLRNHDHEVLLANTFCVEAYLQNLFSLSQLDKYAPENLDEQIKKVSQQILEKRAYICAHPLDRTC
B10: ECSIT (tag-free) (natural protein, human, UniProt Q9BQ95 49-431, looked up)
chain: T1 sequence (looked up)
B11: His6-C-ECSIT (domain or fragment, human, UniProt Q9BQ95 249-431, looked up)
chain: LPKDSTGAADPPQPHIVGIQSPDQQAALARHNPARPVFVEGPFSLWLRNKCVYYHILRADLLPPEEREVEETPEEWNLYYPMQLDLEYVRSGWDNYEFDINEVEEGPVFAMCMAGAHDQATMAKWIQGLQETNPTLAQIPVVFRLAGSTRELQTSSAGLEEPPLPEDHQEEDDNLQRQQQGQS

How the values were obtained:
His6-ECSIT [1] = target: T1, His6-ECSIT; test: SEC
His6-ECSIT [2] = target: T1, His6-ECSIT; test: SEC; remark: listed apart in the source
SEC = target: the molecule itself; test: SEC
ACAD9-His6 = target: B4; test: pull-down
[3] = target: B2; test: SEC

Binder	stoichiometry N (SEC)	also measured
B1	–	stoichiometry N (His6-ECSIT [1]): 1 mol/mol; stoichiometry N (His6-ECSIT [2]): 1 NDUFAF1 chains per ECSIT chain (two monomers with one dimer)
B2	2	–
B3	2	–
B4	2	–
B5	2	–
B6	2	–
B7	2	–
B8	2	–
B9	2	–
B10	–	stoichiometry N (ACAD9-His6): ~1 mol/mol
B11	4	stoichiometry N [3]: 1 C-ECSIT chains per ACAD9 chain (one tetramer with two dimers)
